This assay addresses IgE antibodies in four Pru p 7 reactive human sera. As to the kind of experiment: ImmunoCAP IgE inhibition, inhibitor in solution at 20 ug/mL, rPru p 7 on solid phase.

B1: recombinant Cup s GRPb (protein)
chain: AQIDCDKECNRRCSKASLHDRCLKYCGICCEKCHCVPPGTAGNEDVCPCYAHLKNSKGGHKCP
B1: the percent inhibition of IgE binding to rPru p 7 (fourth serum) came out at 80%.
